Tests used:
[1] = target: T1, SAI/II antigen (SAI/II adhesion of S. mutans) (Streptococcus mutans, UniProt P23504 39-1532); assay: ELISA, SAI/II coated, whole bacterial cells; integrated strain against plasmid strain (same polypeptide, different amount)
T1 construct: Coated on ELISA plates at 1 ug/ml in PBS
T1 sequence (looked up): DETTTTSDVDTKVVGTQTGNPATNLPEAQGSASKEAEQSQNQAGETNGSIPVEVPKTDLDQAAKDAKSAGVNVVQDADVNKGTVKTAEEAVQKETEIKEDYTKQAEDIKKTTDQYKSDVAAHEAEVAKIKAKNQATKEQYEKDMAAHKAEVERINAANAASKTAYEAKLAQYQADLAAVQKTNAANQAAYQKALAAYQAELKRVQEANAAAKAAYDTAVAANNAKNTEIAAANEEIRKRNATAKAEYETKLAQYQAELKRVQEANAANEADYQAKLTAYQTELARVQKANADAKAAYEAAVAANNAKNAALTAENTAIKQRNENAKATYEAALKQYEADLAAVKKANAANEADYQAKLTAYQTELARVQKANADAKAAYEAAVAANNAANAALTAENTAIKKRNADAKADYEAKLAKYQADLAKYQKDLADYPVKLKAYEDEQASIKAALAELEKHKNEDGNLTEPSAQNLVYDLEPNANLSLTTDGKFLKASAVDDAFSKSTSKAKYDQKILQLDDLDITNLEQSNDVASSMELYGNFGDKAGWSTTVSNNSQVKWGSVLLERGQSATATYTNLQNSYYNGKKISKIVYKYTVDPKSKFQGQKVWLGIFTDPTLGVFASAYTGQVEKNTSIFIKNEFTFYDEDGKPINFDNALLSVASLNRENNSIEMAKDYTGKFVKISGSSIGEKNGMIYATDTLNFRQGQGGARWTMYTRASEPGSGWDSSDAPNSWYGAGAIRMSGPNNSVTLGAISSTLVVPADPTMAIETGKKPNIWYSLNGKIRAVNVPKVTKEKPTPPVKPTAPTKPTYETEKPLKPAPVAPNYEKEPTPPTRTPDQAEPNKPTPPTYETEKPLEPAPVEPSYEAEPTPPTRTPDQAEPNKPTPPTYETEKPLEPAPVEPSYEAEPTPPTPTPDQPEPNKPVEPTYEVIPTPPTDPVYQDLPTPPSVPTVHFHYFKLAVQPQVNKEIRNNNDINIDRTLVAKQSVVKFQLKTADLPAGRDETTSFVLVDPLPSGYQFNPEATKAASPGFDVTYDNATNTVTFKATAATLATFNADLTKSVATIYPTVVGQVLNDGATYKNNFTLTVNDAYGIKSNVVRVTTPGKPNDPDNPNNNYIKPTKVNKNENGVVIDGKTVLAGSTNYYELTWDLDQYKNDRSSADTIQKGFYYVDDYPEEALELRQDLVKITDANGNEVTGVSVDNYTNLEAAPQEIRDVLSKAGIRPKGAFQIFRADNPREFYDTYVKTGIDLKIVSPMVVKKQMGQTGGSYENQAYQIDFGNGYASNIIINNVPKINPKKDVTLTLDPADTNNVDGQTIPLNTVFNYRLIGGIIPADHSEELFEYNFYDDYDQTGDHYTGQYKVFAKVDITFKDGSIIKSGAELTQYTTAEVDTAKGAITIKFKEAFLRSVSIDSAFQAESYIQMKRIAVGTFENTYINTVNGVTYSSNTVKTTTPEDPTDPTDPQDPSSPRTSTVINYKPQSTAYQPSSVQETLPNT

[2] = target: T1, SAI/II antigen (SAI/II adhesion of S. …); assay: ELISA, SAI/II coated, culture supernatant; integrated strain against plasmid strain (same polypeptide, different amount)

B1: surface anchored scFv anti-SAI/II (E-tagged) fused to the prtP anchor region, displayed on L. paracasei pAF900 (plasmid) or L. paracasei EM181 (chromosomally … (scFv)
scFv: AIVEGSAAQPAMDAQVKLQESGPDLVKPGASVKISCKASGYTFTDYNIHWVKQSRGKSLEWIGYIYPYNGNTYYNQKFKNKATLTVDNSSTSAYMELRSLTPEDSAVYYCATYFDYWGQGTTVTVSSGGGGSGGGGSGGGGSDIELTQSPAIMSASPGEKVTITCSASSSVSYMHWFQQKPGTSPKLWLYSTSNLASGVPARFSGSGSGTSYSLTISRMEAEDAATYYCHQRTSYPYTFGGGTKLEIKRAAAAGAPVPYPDPLEPRAAASKKTSLLNQLQSVKAALGTDLGNQTDPSTGKTFMAALDDLVAQAQAGTQTADQLQASLAKVLDAVLAKLAEGIKAATPAEVGNAKDAATGKTWYADIADTLTSGQASADASDKLAHLQALQSLKTKVAAAVEAAKTAGKGDDTSGTSDKGGGQGTPAPAPGDTGKNKGDEGSQPSSGGNIPTKPATTTSTSTDDTTDRNGQHTSGKGALPKTAETTERPAFGFLGVIVVSLMGVLGLKRKQREE
modifications: On the cells the chain is covalently linked to the cell wall through the prtP anchor (LPXTG-type motif, here LPKTA at residues 478-482).
notes: Same polypeptide from the plasmid strain and the integrated strain (pEM181 = pEM76 with the expression cassette of pAF900); tested as whole bacterial cells; (precursor, before any processing on anchoring to the cell wall); also called pEM181
fold lower binding level than L. paracasei pAF900 [1]: < 16 fold

B2: secreted and attached scFv anti-SAI/II (E-tagged) fused to the middle region and C-terminal domain of APF, produced by L. paracasei pAF400 (plasmid) or L. … (scFv)
scFv: AIVEGSAAQPAMDAQVKLQESGPDLVKPGASVKISCKASGYTFTDYNIHWVKQSRGKSLEWIGYIYPYNGNTYYNQKFKNKATLTVDNSSTSAYMELRSLTPEDSAVYYCATYFDYWGQGTTVTVSSGGGGSGGGGSGGGGSDIELTQSPAIMSASPGEKVTITCSASSSVSYMHWFQQKPGTSPKLWLYSTSNLASGVPARFSGSGSGTSYSLTISRMEAEDAATYYCHQRTSYPYTFGGGTKLEIKRAAAAGAPVPYPDPLEPRAAASEELYHTQAAVTQAPVQHQTQTENTNSAATTTAANNTNTQTTTSTVSGSEASAKEWIAGRESGGSYGASNGQYVGKYQLSASYLNGDYSAANQERVADNYVKGRYGSWTAAKAFWQANGWY
notes: Same polypeptide from the plasmid strain and the integrated strain (pEM171 = pEM76 with the expression cassette of pAF400); tested as culture supernatant and as whole cells (attached form); also called pEM171
fold reduction in binding activity against the corresponding plasmid system (L. paracasei pAF400) [2]: 4 fold

B3: secreted scFv anti-SAI/II (E-tagged) produced by L. paracasei pAF100 (plasmid) or L. paracasei EM182 (chromosomally integrated) (scFv)
scFv: AIVEGSAAQPAMDAQVKLQESGPDLVKPGASVKISCKASGYTFTDYNIHWVKQSRGKSLEWIGYIYPYNGNTYYNQKFKNKATLTVDNSSTSAYMELRSLTPEDSAVYYCATYFDYWGQGTTVTVSSGGGGSGGGGSGGGGSDIELTQSPAIMSASPGEKVTITCSASSSVSYMHWFQQKPGTSPKLWLYSTSNLASGVPARFSGSGSGTSYSLTISRMEAEDAATYYCHQRTSYPYTFGGGTKLEIKRAAAAGAPVPYPDPLEPRAA
notes: Same polypeptide from the plasmid strain and the integrated strain (pEM182 = pEM76 with the expression cassette of pAF100); tested as culture supernatant; also called pEM182
fold reduction in binding activity against the corresponding plasmid system (L. paracasei pAF100) [2]: ≥ 8 fold

From patent publication US20130323819A1 (HERA PHARMACEUTICALS, published 2013)
